What was measured:
[1] = molecular target: Aβ1-42 peptide fraction consisting primarily of monomers (LMW monomer fraction from SEC); test: ELISA on coated fraction; antibody dilution 1:1 (starting dilution 0.5 µg/ml); assay 1
[2] = molecular target: Aβ1-42 peptide fraction enriched in oligomers (high molecular weight fraction from SEC); test: as above
[3] = molecular target: Aβ1-42 peptide fraction consisting primarily of monomers (LMW monomer fraction from SEC); test: ELISA on coated fraction; antibody dilution 1:1 (starting dilution 0.5 µg/ml); assay 2
[4] = molecular target: Aβ1-42 peptide fraction enriched in oligomers (high molecular weight fraction from SEC); test: as above
[5] = molecular target: Aβ1-42 peptide fraction consisting primarily of monomers (LMW monomer fraction from SEC); test: ELISA on coated fraction; antibody dilution 1:1 (starting dilution 0.5 µg/ml); assay 3
[6] = molecular target: Aβ1-42 peptide fraction enriched in oligomers (high molecular weight fraction from SEC); test: as above
[7] = molecular target: Aβ1-42 peptide fraction consisting primarily of monomers (LMW monomer fraction from SEC); test: ELISA on coated fraction; antibody dilution 1:2 (starting dilution 0.5 µg/ml); assay 1
[8] = molecular target: Aβ1-42 peptide fraction enriched in oligomers (high molecular weight fraction from SEC); test: as above
[9] = molecular target: Aβ1-42 peptide fraction consisting primarily of monomers (LMW monomer fraction from SEC); test: ELISA on coated fraction; antibody dilution 1:2 (starting dilution 0.5 µg/ml); assay 2
[10] = molecular target: Aβ1-42 peptide fraction enriched in oligomers (high molecular weight fraction from SEC); test: as above
[11] = molecular target: Aβ1-42 peptide fraction consisting primarily of monomers (LMW monomer fraction from SEC); test: ELISA on coated fraction; antibody dilution 1:2 (starting dilution 0.5 µg/ml); assay 3
[12] = molecular target: Aβ1-42 peptide fraction enriched in oligomers (high molecular weight fraction from SEC); test: as above
[13] = molecular target: Aβ1-42 peptide fraction enriched in oligomers (high molecular weight fraction from SEC); test: ELISA on coated fraction; antibody dilution 1:4 (starting dilution 0.5 µg/ml); assay 1
[14] = molecular target: Aβ1-42 peptide fraction consisting primarily of monomers (LMW monomer fraction from SEC); test: ELISA on coated fraction; antibody dilution 1:4 (starting dilution 0.5 µg/ml); assay 2
[15] = molecular target: Aβ1-42 peptide fraction enriched in oligomers (high molecular weight fraction from SEC); test: as above
[16] = molecular target: Aβ1-42 peptide fraction consisting primarily of monomers (LMW monomer fraction from SEC); test: ELISA on coated fraction; antibody dilution 1:4 (starting dilution 0.5 µg/ml); assay 3
[17] = molecular target: Aβ1-42 peptide fraction enriched in oligomers (high molecular weight fraction from SEC); test: as above
[18] = molecular target: Aβ1-42 peptide fraction consisting primarily of monomers (LMW monomer fraction from SEC); test: ELISA on coated fraction; antibody dilution 1:8 (starting dilution 0.5 µg/ml); assay 1
[19] = molecular target: Aβ1-42 peptide fraction enriched in oligomers (high molecular weight fraction from SEC); test: as above
[20] = molecular target: Aβ1-42 peptide fraction enriched in oligomers (high molecular weight fraction from SEC); test: ELISA on coated fraction; antibody dilution 1:8 (starting dilution 0.5 µg/ml); assay 2
[21] = molecular target: Aβ1-42 peptide fraction enriched in oligomers (high molecular weight fraction from SEC); test: ELISA on coated fraction; antibody dilution 1:8 (starting dilution 0.5 µg/ml); assay 3
[22] = molecular target: Aβ1-42 peptide fraction consisting primarily of monomers (LMW monomer fraction from SEC); test: ELISA on coated fraction; antibody dilution 1:16 (starting dilution 0.5 µg/ml); assay 1
[23] = molecular target: Aβ1-42 peptide fraction enriched in oligomers (high molecular weight fraction from SEC); test: as above
[24] = molecular target: Aβ1-42 peptide fraction consisting primarily of monomers (LMW monomer fraction from SEC); test: ELISA on coated fraction; antibody dilution 1:16 (starting dilution 0.5 µg/ml); assay 2
[25] = molecular target: Aβ1-42 peptide fraction enriched in oligomers (high molecular weight fraction from SEC); test: as above
[26] = molecular target: Aβ1-42 peptide fraction consisting primarily of monomers (LMW monomer fraction from SEC); test: ELISA on coated fraction; antibody dilution 1:16 (starting dilution 0.5 µg/ml); assay 3
[27] = molecular target: Aβ1-42 peptide fraction enriched in oligomers (high molecular weight fraction from SEC); test: as above
[28] = molecular target: Aβ1-42 peptide fraction consisting primarily of monomers (LMW monomer fraction from SEC); test: ELISA on coated fraction; antibody dilution 1:32 (starting dilution 0.5 µg/ml); assay 1
[29] = molecular target: Aβ1-42 peptide fraction enriched in oligomers (high molecular weight fraction from SEC); test: as above
[30] = molecular target: Aβ1-42 peptide fraction consisting primarily of monomers (LMW monomer fraction from SEC); test: ELISA on coated fraction; antibody dilution 1:32 (starting dilution 0.5 µg/ml); assay 2
[31] = molecular target: Aβ1-42 peptide fraction enriched in oligomers (high molecular weight fraction from SEC); test: as above
[32] = molecular target: Aβ1-42 peptide fraction consisting primarily of monomers (LMW monomer fraction from SEC); test: ELISA on coated fraction; antibody dilution 1:32 (starting dilution 0.5 µg/ml); assay 3
[33] = molecular target: Aβ1-42 peptide fraction enriched in oligomers (high molecular weight fraction from SEC); test: as above
[34] = molecular target: Aβ1-42 peptide fraction consisting primarily of monomers (LMW monomer fraction from SEC); test: ELISA on coated fraction; antibody dilution 1:64 (starting dilution 0.5 µg/ml); assay 1
[35] = molecular target: Aβ1-42 peptide fraction enriched in oligomers (high molecular weight fraction from SEC); test: as above
[36] = molecular target: Aβ1-42 peptide fraction consisting primarily of monomers (LMW monomer fraction from SEC); test: ELISA on coated fraction; antibody dilution 1:64 (starting dilution 0.5 µg/ml); assay 2
[37] = molecular target: Aβ1-42 peptide fraction enriched in oligomers (high molecular weight fraction from SEC); test: as above
[38] = molecular target: Aβ1-42 peptide fraction consisting primarily of monomers (LMW monomer fraction from SEC); test: ELISA on coated fraction; antibody dilution 1:64 (starting dilution 0.5 µg/ml); assay 3
[39] = molecular target: Aβ1-42 peptide fraction enriched in oligomers (high molecular weight fraction from SEC); test: as above
[40] = molecular target: Aβ1-42 peptide fraction consisting primarily of monomers (LMW monomer fraction from SEC); test: ELISA on coated fraction; antibody dilution 1:128 (starting dilution 0.5 µg/ml); assay 1
[41] = molecular target: Aβ1-42 peptide fraction enriched in oligomers (high molecular weight fraction from SEC); test: as above
[42] = molecular target: Aβ1-42 peptide fraction consisting primarily of monomers (LMW monomer fraction from SEC); test: ELISA on coated fraction; antibody dilution 1:128 (starting dilution 0.5 µg/ml); assay 2
[43] = molecular target: Aβ1-42 peptide fraction enriched in oligomers (high molecular weight fraction from SEC); test: as above
[44] = molecular target: Aβ1-42 peptide fraction consisting primarily of monomers (LMW monomer fraction from SEC); test: ELISA on coated fraction; antibody dilution 1:128 (starting dilution 0.5 µg/ml); assay 3
[45] = molecular target: Aβ1-42 peptide fraction enriched in oligomers (high molecular weight fraction from SEC); test: as above
[46] = molecular target: Aβ1-42 peptide fraction consisting primarily of monomers (LMW monomer fraction from SEC); test: ELISA on coated fraction; antibody dilution 1:1 (starting dilution 0.5 µg/ml); mean of 3 assays
[47] = molecular target: Aβ1-42 peptide fraction enriched in oligomers (high molecular weight fraction from SEC); test: as above
[48] = molecular target: Aβ1-42 peptide fraction consisting primarily of monomers (LMW monomer fraction from SEC); test: ELISA on coated fraction; antibody dilution 1:2 (starting dilution 0.5 µg/ml); mean of 3 assays
[49] = molecular target: Aβ1-42 peptide fraction enriched in oligomers (high molecular weight fraction from SEC); test: as above
[50] = molecular target: Aβ1-42 peptide fraction consisting primarily of monomers (LMW monomer fraction from SEC); test: ELISA on coated fraction; antibody dilution 1:4 (starting dilution 0.5 µg/ml); mean of 3 assays
[51] = molecular target: Aβ1-42 peptide fraction enriched in oligomers (high molecular weight fraction from SEC); test: as above
[52] = molecular target: Aβ1-42 peptide fraction enriched in oligomers (high molecular weight fraction from SEC); test: ELISA on coated fraction; antibody dilution 1:8 (starting dilution 0.5 µg/ml); mean of 3 assays
[53] = molecular target: Aβ1-42 peptide fraction consisting primarily of monomers (LMW monomer fraction from SEC); test: ELISA on coated fraction; antibody dilution 1:16 (starting dilution 0.5 µg/ml); mean of 3 assays
[54] = molecular target: Aβ1-42 peptide fraction enriched in oligomers (high molecular weight fraction from SEC); test: as above
[55] = molecular target: Aβ1-42 peptide fraction consisting primarily of monomers (LMW monomer fraction from SEC); test: ELISA on coated fraction; antibody dilution 1:32 (starting dilution 0.5 µg/ml); mean of 3 assays
[56] = molecular target: Aβ1-42 peptide fraction enriched in oligomers (high molecular weight fraction from SEC); test: as above
[57] = molecular target: Aβ1-42 peptide fraction consisting primarily of monomers (LMW monomer fraction from SEC); test: ELISA on coated fraction; antibody dilution 1:64 (starting dilution 0.5 µg/ml); mean of 3 assays
[58] = molecular target: Aβ1-42 peptide fraction enriched in oligomers (high molecular weight fraction from SEC); test: as above
[59] = molecular target: Aβ1-42 peptide fraction consisting primarily of monomers (LMW monomer fraction from SEC); test: ELISA on coated fraction; antibody dilution 1:128 (starting dilution 0.5 µg/ml); mean of 3 assays
[60] = molecular target: Aβ1-42 peptide fraction enriched in oligomers (high molecular weight fraction from SEC); test: as above

control antibody 6E10
O.D. (O.D. at 405 nm) [1]: 3.67
O.D. (O.D. at 405 nm) [2]: 3.36
O.D. (O.D. at 405 nm) [3]: 3.77
O.D. (O.D. at 405 nm) [4]: 3.67
O.D. (O.D. at 405 nm) [5]: 4.04
O.D. (O.D. at 405 nm) [6]: 3.89
O.D. (O.D. at 405 nm) [7]: 3.3
O.D. (O.D. at 405 nm) [8]: 3.39
O.D. (O.D. at 405 nm) [9]: 3.48
O.D. (O.D. at 405 nm) [10]: 3.55
O.D. (O.D. at 405 nm) [11]: 4
O.D. (O.D. at 405 nm) [12]: 3.83
O.D. (O.D. at 405 nm) [13]: 3.1
O.D. (O.D. at 405 nm) [14]: 3.29
O.D. (O.D. at 405 nm) [15]: 3.37
O.D. (O.D. at 405 nm) [16]: 3.52
O.D. (O.D. at 405 nm) [17]: 3.64
O.D. (O.D. at 405 nm) [18]: 2.67
O.D. (O.D. at 405 nm) [19]: 2.73
O.D. (O.D. at 405 nm) [20]: 2.99
O.D. (O.D. at 405 nm) [21]: 3.23
O.D. (O.D. at 405 nm) [22]: 1.78
O.D. (O.D. at 405 nm) [23]: 1.78
O.D. (O.D. at 405 nm) [24]: 1.94
O.D. (O.D. at 405 nm) [25]: 1.92
O.D. (O.D. at 405 nm) [26]: 2.23
O.D. (O.D. at 405 nm) [27]: 2.07
O.D. (O.D. at 405 nm) [28]: 1.18
O.D. (O.D. at 405 nm) [29]: 1.27
O.D. (O.D. at 405 nm) [30]: 1.34
O.D. (O.D. at 405 nm) [31]: 1.3
O.D. (O.D. at 405 nm) [32]: 1.54
O.D. (O.D. at 405 nm) [33]: 1.4
O.D. (O.D. at 405 nm) [34]: 0.81
O.D. (O.D. at 405 nm) [35]: 0.93
O.D. (O.D. at 405 nm) [36]: 0.94
O.D. (O.D. at 405 nm) [37]: 0.88
O.D. (O.D. at 405 nm) [38]: 1.08
O.D. (O.D. at 405 nm) [39]: 0.95
O.D. (O.D. at 405 nm) [40]: 0.64
O.D. (O.D. at 405 nm) [41]: 0.62
O.D. (O.D. at 405 nm) [42]: 0.75
O.D. (O.D. at 405 nm) [43]: 0.61
O.D. (O.D. at 405 nm) [44]: 0.86
O.D. (O.D. at 405 nm) [45]: 0.66
O.D. (mean) (O.D. at 405 nm) [46]: 3.83
O.D. (mean) (O.D. at 405 nm) [47]: 3.64
O.D. (mean) (O.D. at 405 nm) [48]: 3.59
O.D. (mean) (O.D. at 405 nm) [49]: 3.59
O.D. (mean) (O.D. at 405 nm) [50]: 3.27
O.D. (mean) (O.D. at 405 nm) [51]: 3.37
O.D. (mean) (O.D. at 405 nm) [52]: 2.98
O.D. (mean) (O.D. at 405 nm) [53]: 1.98
O.D. (mean) (O.D. at 405 nm) [54]: 1.92
O.D. (mean) (O.D. at 405 nm) [55]: 1.36
O.D. (mean) (O.D. at 405 nm) [56]: 1.32
O.D. (mean) (O.D. at 405 nm) [57]: 0.94
O.D. (mean) (O.D. at 405 nm) [58]: 0.92
O.D. (mean) (O.D. at 405 nm) [59]: 0.75
O.D. (mean) (O.D. at 405 nm) [60]: 0.63
